Measured values reported in PMC11724365, “Novel archaeal ribosome dimerization factor facilitating unique 30S–30S dimerization” (Nucleic Acids Research, 2025).

Biological target: the molecule itself
Experiment: cryo-EM structure; 1 uM P. furiosus 30S subunits with 5 uM aRDF (1:5) in 20 mM HEPES-KOH pH 7.0, 12 mM MgCl2, 100 mM NH4Cl, 0.5 mM EDTA; 15 min at 70 °C before freezing; Structures I and II at 3.2 Å

B1: archaeal ribosome dimerization factor (aRDF) (natural protein, Pyrococcus furiosus)
chain: MKVVGIKGSVSYLQALKYLKTKKVTKRLKEIEKLVDTLITLAPYAPEGSKIETIRKNYAKISFNKIKTVSRSKIGSPRIKSIMLLLWNFGLLDVKIIENSWYVRKTKLASLLEENFKDLSPSEKLKVYLLGGLLVDTPARFVYRCTLNGVEDYKGVKKAILGYLSDQRSNSLIIGLSNMLESIKFIEEAQAYSGKKEYIGLVDVAFYGLSGLYLDVKRESGKLTVKPNFRELRALYEIDKSVATGSDYGLSISKEILENLANTKRRKTIFSEEVQELLVNVIKENAISISQDLQNMYGII
notes: aRDF (PF0560 protein) of Pyrococcus furiosus; modelled in PDB 9FNY and 9FNZ with poorly defined loops omitted; Forms homodimers (monomers A and B); two homodimers bridge two 30S subunits in the cryo-EM structures; also called PF0560; PF0560 protein; source: E. coli BL21(DE3), purified (heat treatment, Ni-NTA, heparin)
stoichiometry N: 2
